Data reported in the DeepSol protein solubility set.

Assay: soluble on expression in E. coli; label from the status in PepcDB or PDB records

| Sequence | soluble on expression in E. coli |
| --- | --- |
| MKVRHPFKVVVVTGVPGVGKTTVIKELQGLAEKEGVKLHIVNFGSFMLDTAVKLGLVEDRDKIRTLPLRRQLELQREAAKRIVAEASKALGGDGVLIIDTHALVKTVAGYWPGLPKHVLDELKPDMIAVVEASPEEVAARQARDTTRYRVDIGGVEGVKRLMENARAASIASAIQYASTVAIVENREGEAAKAAEELLRLIKNL | soluble |
| MKVSILDYGVIDKEKTPQEALLETRCLAQVADKLGFHRFWVAEHHNIYAFAISSPELLMMHLADHTKQIRIGSGGIMPLHYSSFKIAEWIMTLEALHPNRIDLGIGNSLGTTLVQRALSSIHCKDSYSQVVTELYQYLNPDHLSPLPIFVNPRGNTYPQIWTLSNSLETAELAGQLGLGYTFGIFPYIPKDPITEAKRVSAHYRKAFRPSKLLKIPKLILAVFIVLSDTDEKAEALAKPLDIWMLGQQDFNEFKTYPDVEEARNYHLTEKQREAIAANRSRMVIGSPHTVKKQLDRLIEACQADELLAIPLVPEFANRQRTLELLADLYVTI | not soluble |
| MKVTITANAPLSAGAMAVKKEAENANVFAALLAHKQQELLPAGAETSLFQEESSKNKEPDWQNGGMETGAAGQPSSAEKKPAQIESLWLAPSIMTALAVAPISAAAGAPLLEADQQAEGKTSDHWTFPFVGAMNGEETIAAQPAADEAGFERAFITDGRKSGHIDAESGSPSSGKTGMFPPLLSDGDQRPFHEQGGNRTVVALPNEASPVRPAGEKDVSLPKRGDKGHGGEATPSFTTPPALLSPSSSSVGLVGEMPASAGGSVADQVAHALRSARWMKLPNGVMQLVIRLHPEHLGTVTVKMTEEGGKLAAKLLVANDAVKELLYAHLPQLAQQLDASSITVEKWTVWSDYDSPAMPPYSGNRQGGQQQGESRQKQKREPSSSFPFALDGIEADA | not soluble |
| MKVTVHAKNIELTNALKDCVEKKISKLSKYFEPGVEAKATLSVEKNKQIVEIMIPFNGILLRGEESTDDMYKSIDLVEEKIERQIRKQKTRLSKKNRYDSLRFAHIDPIEDMKEEKEAKIVKTKRFDVKPMGAEEAVLQMELIGHDFFVFQDPETNQLNVVYKRKDGNYGLIEPGLGEELEHHHHHH | soluble |
| MKVWITGAGGMMGSHLAEMLLAAGHDVYATYCRPTIDPSDLQFNGAEVDITDWCSVYDSIATFRPDAVFHLAAQSYPAVSWARPVETLTTNMVGTAIVFEALRRVRPHAKIIVAGSSAEYGFVDPSEVPINERRELRPLHPYGVSKAATDMLAYQYHKSYGMHTVVARIFNCTGPRKVGDALSDFVRRCTWLEHHPEQSAIRVGNLKTKRTIVDVRDLNRALMLMLDKGEAGADYNVGGSIAYEMGDVLKQVIAACKRDDIVPEVDPALLRPTDEKIIYGDCSKLAAITGWQQEICLTQTIADMFDYWRSKSESALMV | not soluble |
| MKWDEIGKNIAKEIEKEILPYFGRKDKSYVVGTSPSGDETEIFDKISEDIALKYLKSLNVNIVSEELGVIDNSSEWTVVIDPIDGSFNFINGIPFFAFCFGVFKNNEPYYGLTYEFLTKSFYEAYKGKGAYLNGRKIKVKDFNPNNIVISYYPSKKIDLEKLRNKVKRVRIFGAFGLEMCYVAKGTLDAVFDVRPKVRAVDIASSYIICKEAGALITDENGDELKFDLNATDRLNIIVANSKEMLDIILDLL | soluble |
| MKWHGLPACDSNPNSTTEFCRTRRPTKTMNSPATQTATPTNVDIASIVEQVLRRLRDQTNTNGSTSKPATHAPSAHVLSDKVISVDVIRGIPSGVTQVQLSGGIVTPAARDEMRARGISLAGAESTSAAAIKPASNSGKRFIQLHTDTSSKSIRDALARQLALRGVDHCPRAHRSVIVTKHPATALLGRIQSGARAVLITRLEDIPRFASEIDADTFVLDMQRFNLVALVNAATSIAQLSTSSTSQEAT | not soluble |
| MKYAVLIGDGMADYPIEELGSRTILQAARTPAMDSIAARGKTGLAKTVPEGFPPGSDVANMSIFGYDPAIYYSGRAPLEAASMGVALAADDVAFRCNLITIENGKIKDYSAGHISSDEAEILIDTLDSELRTEKVRFYPGISYRHLIVAGNDLGAETECTPPHDITGERKDDYLPRGKDGEFFSGLIEASTVVLELHPVNLKRVQEGKNPANSIWVWGQGYAPKFKTFQELYGKSGAIISAVDLLKGIGIYAGLDVIEVPGATGYLDTNYEGKASAAIEALKTRDLVFVHVEAPDEAGHEGSLEKKMKAIEDFDSRIVSPILKHAEASDETFTILVLPDHPTPISVKTHTRDPIPFAIYRTDAADPDGVEYFDEESVKNGSMGLVKASDLIGMLVKVLEHHHHHH | not soluble |
| MKYCDFNGCHNKISKGRYCEEHKRNKPRKKKDKKNIYHHENKPFYRTDAWKFVRSKVYERENGCCQRCGRFVFGRRAHVHHVIPIKEDPILKLEENNLRLLCPVCHTIEENEDKPKKVFPSYFGSPPIKNLEHHHHHH | soluble |
| MKYGPSKDQIKQMAEEVREAAIRVKGEKELRMCPKTGHGSEWAGQLAVDANGAMNTYQPEGKYGDYGIGEDNRYLGTAKDWATLESGYQWIPGEFERYLMPEPHDFDALVDSAQKLTKDFVNVGQAKDPANVPAGTPTSVAPGTSAVDQPIRLSMGFTSDWSGHFADGFQRYLSEIPDVTRRQAVVAETLYEAAVAARDIYGAGREELGNIAKNAKLAIEGVEAGKSTGGCAGSSMATGFALIAAAATVAAGVSTLPISGPAVISGAMAAGNWTIVVGISSAIAAGSPLIPAPEKIELLASDVDGVIEKMKEALTKREKTVTDSEEAFAKKLGANSEMVEKNKVTGKDGGKSQDNAFFPRRPAMLDMSTDLKDLKDPATGFTHPVAAS | not soluble |
| MKYKSVFDIIGPVMVGPSSSHTAGAVRIGLVARKLFGRKPTWARISFYGSFAETYRGHGTDVAIVAGLLGFDTFDERLPNALEIAQAEGVDVSFSAEEAIPHHPNTARLRIGDDEGELELVGISIGGGKIEIVELNGFALKLSGHHPALLIMHNDRYGTIGAVASVLAKRKINIGHMEVSRKEKGKEALMAIEVDQPLTDDLIQELEQLPNIIQVAKLAD | not soluble |
| MKYRVETNPFSKDRYNPEQLEMFKNRQLSKDKAEVFFTRLYNQHIAWVIIANVMTEYVIKFRKSATSFEEAWDALDYQRTTEIVFRAVNGLPCSEKDSGELETYLSEEQHEKH | not soluble |
| MKYWLYTSLFLALIFSFRSYANSDIWILIDTLEQRLSVMRGDKAQLAFNNIAIGRYGASSSRMKGDNQTPLGSFQISWIKQHHRYYRFFGVDFPNQEAADLALAEKRISRQAWLSITKAIESSRLPPQDTPLGGYIGIHGIGRGDRTVHARFNWTNGCVALTNAQIDELSSWIKIGTKVVIR | not soluble |
| MLCIDSSRDLTYGVVMTFKVMEFQKGRLQNLYWKRDVCASCKGNQNFVCLKKQVCAIRTPSCKGRGGSVGCSLGIQLAFSGTDKHLAVLNSWYEVDNLKQYSLYGLYSNLKSSLTNQLNNFF | soluble |
| MLEACTKCGTCAEACTMYLGSGRKKIYSPVYRSDMLRKIYKKHFTLTGKLFGPLIGAKDPTEDDINALAESAYRCTVCRRCALACPFGLDNGLITRETRKIFADLGILEHHHHHH | not soluble |
| MLEFFDEDFDNMALVEGALELNKSVNPETNVHWAKQELERLYQEAEATLIHETDEEQRFDSFLRLFFHEWGFKGDDQEYFISDNSFIDKVLERKKGIPVSLGAILLYLGNRLGFPMKGVTFPTQFLIKVDWMHKTPDYINPFNGEYVGEKILQAWLIGQEGPLAQLKPEHFDEADNPTVIGRWLALIKSAMLREERYTLALRCTNLALTFVPDDPYEIRDRGFIFQQLECHQVAVSDFQYFIDQCPDDPASELLKSQVNAMSEKHVTLHLEHHHHHH | soluble |
| MLEGAKFNVLAVGNHHNNDNNYYAFTQEFYQKLNEGSNMSMESMQTSNAGGSVSMSVDNSSVGSSDALIGHPGLKPVRHYSLSVGQSVFRPGRVTHALNDDALAQALMDTRYPTEGLTNYDEWTIDLRKLNMGPAFAQGAFGKLYKGTYNGEDVAIKILERPENSPEKAQFMEQQFQQEVSMLANLKHPNIVRFIGACRKPMVWCIVTEYAKGGSVRQFLTRRQNRAVPLKLAVKQALDVARGMAYVHGRNFIHRDLKSDNLLISADKSIKIADFGVARIEVQTEGMTPETGTYRWMAPEMIQHRAYNQKVDVYSFGIVLWELITGLLPFQNMTAVQAAFAVVNRGVRPTVPNDCLPVLSDIMTRCWDANPEVRPCFVEVVKLLEAAETEIMTTARKARFRCCLSQPMTID | not soluble |
| MLEQILLGTYTRRASQGIYKIALDTTQGRLTEATLLLEETSPTYLALSQKGELFSVTSVDGEGGTAAYQPEMDHFNLLNKVTEEGAPPCYVAVDENRQLVYAANYHQGIVHVYRILEDGSLEDADKVIHTEPTGPHENQNNAHVHYTDLTPDQRLVVCDLGTDRVYTYNVSLDGKLSEIAQFVTEPGTGPRHLVFHPTKSLAYLFGELDSTVSVLSYDETDGSFTELQKVSTLPADYDAFNGGAAIRISSDGRFLYASNRGHNSIAVYAVSENGEAIERIQLISTEGDIPRDFDLDPSEDFIVVANQDSDNLTLYRRNQETGLLEMIQKDVAVPECVCVLFVLEHHHHHH | soluble |
| MLETEHANTEVHELCRQMIARIEKYGTLEGFSDSDILEVLKTIKEILEPLPCLIEIIAPVVVFGDIHGQLGDLLQFTNEVGRPPDFQYLFLGDYVDRGPNSLEVTVWLFCMKILFSKKVHLLRGNHEVRRVNTMYGFKEEMMRKRNSHLWKVFNDVFAELSICASINRKILCMHGGISPKIESWDSLTGMTKPRVHGDCEHGLIVDLIWSDPNRKDDTIQFNKMRGISTLFGKSVVDNLCTTLAIDLIIRAHEMKEVYVFHLYLSSMKGHTFEFDNRLLTVFSAPYYSGHNSNLGSVATISKSLKLRIVTLKPNKGYDRSKLDKRTLHDFEKNFQPLDENPRKNISCQFNVPPNGQKMSPFLGEYSMFAHETQFCKKDNETPVKKPYSSNQDEDHSVLDMIRKTQKGYGVEVSLKDKVMSLESIRKKLGMTTSTTPPPPRTPSPDAPLAQSPPIPRSPPSSTENA | not soluble |
| MLEVKELVKTFGDFKAVDHVSFTIPDGKILGLIGQNGAGKTTTFRLILNFLTQDSGSVLWNGQPLNEKEYNIIGYLPEERGLYPKITIEDQLIYFASLRGKTKKEIEPKIDFWMEKFQVKGKKTDKVKSLSKGNQQKVQLIATLIHEPKLIILDEPFSGLDPVNAELLKDGIIELKNQGSCVIFSSHNMDNVEKICDHLVMLKNGRMVLDGQVHEIRQQFGRTKLFLESPLSVEEVAATAGVKEAHLRQDGVLEATLENAEVGKVLFDKATANGYIPMFNQQPPTLEEIFKMKVGGQDE | not soluble |
| MLFDMLHSFHESRVIKSHHNLTQQPVSTFLLMGLDNSGKRKLSTTRTDGMMVVIVNHKTKTMTLCSLLRDTFVKIHSQQYHGYQRIESAYTYGGDAAAIATVEHYLNLPIDYYLTVNWDGFIRAIDDIGPVEVNVDRDFIGQDYWGKPEKFKAGLQSMSGARALAYARERHIDNDQHRGFRQQAVFYAMVKRLNQEGLSSKGAKVVGDLKDQMRTNLTNHDMLTLFKSRKTFKRYRVKRLTFQWRTFDVAGRSMVEVYPDSRVQVSRQLQAAAGLRPDLPSQTFTTNGHYRYASDESVESKADEAKADTHYGQSHVYVGHAGNTTIGKLPAAVPLKNGFRVSDRTETMYTVHLEHHHHHH | soluble |
| MLFFSSAMSKHKLTFTKLSDCMKYLDLAATWAEEEWGYIRNKGLEFRKKILSDLKEHTYIGTFNGQPIAMFVLFDKEMSPEFNHGRFKPPVVNELMYVYIDKPYRGLGFGKQIIDEAKQLASDSKSEYIMLDTLKPGLNRFYEKSGAKVIAENQLFSHPTDVLTIKI | not soluble |
| MLFMIEVEIFPHRYLKASTTEKFLNKIYDLKTVERVVIHGQPLPKVITYGPARGLPVNHTERKIIHVKGVPVELTVMAGRFWITLSDDSELDKLDEICKEMFPFGYNLRVGKFLKDRPTVTDYIKYGEDGVFLINEMDRRLIGMVDPRSRMANLEHHHHHH | not soluble |
